Experiment: soluble on expression in E. coli; label from the status in PepcDB or PDB records

Row | Sequence | soluble on expression in E. coli
1 | MGHHHHHHSHMFFKQFYDKHLSQASYLIGCQKTGEAMIIDPIRDLSSYIRVADEEGLTITHAAETHIHADFASGIRDVAIKLNASIYVSGESDDTLGYKNMPNQTHFVQHNDDIYVGNIKLKVLHTPGHTPESISFLLTDEGAGAQVPMGLFSGDFIFVGDIGRPDLLEKAVKVEGSSEIGAKQMFKSIESIKDLPNYIQIWPGHGAGSPCGKSLGAIPTSTLGYEKQTNWAFSENNEATFIDKLISDQPAPPHHFAQMKKINQFGMNLYQPYTVYPATNTNRLTFDLRSKEAYHGGHIEGTINIPYDKNFINQIGWYLNYDQEINLIGEYHLVSKATHTLQLIGYDDVAGYQLPQSKIQTRSIHSEDITGNESHILDVRNDNEWNNGHLSQAVHVPHGKLLETDLPFNRNDVIYVHCQSGIRSSIAIGILEHKGYHNIINVNEGYKDIHLS | not soluble
2 | MSSHFVDWLIAHGYEQDAFDRPDVGPAGSFGGKTRSGDPVEKEPVIFIHGSGDTALFTQQPLATGFSRSIQYFLEQNYTEAELYATTWGDTWGSGSMLDTYSTIHTCGNLIYLRRFLEAVIGYTGAKKVDIIAHSVGVPLMRKVVKGGTLIGTDGNCTLGPPLGAKVDTFLGIAGPNFGLCVCQLAQTVPAWCNALDGLYPGYTCQDQLWCGYTSGSCKQENYSNLLQKTNDDPNREGDHVYAMWSDVDEVLLNRGMVWGKPTARIPGMNGRWISDRNGHVAMKDLTELRQFEAIVHHSI | not soluble
3 | MASFVTSKRDFRARAHSNPLNDAEFLVPEDPLRFDWSPFIPDVGSHPIDYVDLGCGYGGLLCELSIAFPNKYMLGMEIRDRVASYCVTKLEELRRLNSKGYRNIGFIRTNCMKFLPFYFPPSSVEKFFICFPDPHFKKKKHRQRLVSLRFLSEAAYCLRPGGMIYIVTDVEELFAWMTNLFAQHPLFLTMDKELVKQQDVLLPYLLNHTDEAQRMKRRGQDTPYWNVFQRKTVFC | not soluble
4 | MGSDKIHHHHHHMGLLAGVEISDVPLKKIVTVCLAVLVAGCAGPQTQELLGSAIVAAPVTEIAGNHSIFIATTRKKSDDPNKVFDGERSATLNYARVNVTVPGLHQTGQIERRSRGKSDDPAKYFMASEVVGYDTQPKFSSALNADIAARGGRVMVFVHGYNTGFDDAVYRLTQIVHDSGYPGTPVLFSWASGAKTTDYVYDKESASAARDQLEVTLRMLQQSGARRIDIVAHSMGTWVTMETLRQMAISGDRDLGGKLGDVVLASPDIDVDVFKSQMRRYGKPDKPFILLLSDDDRALRLSGLIAGSRPRVGDYKDAADLASYGVTVVDLSEVKGSDSFNHTKFADNPVLVKMIGQRLREDDGFASDRDVTDRISLLGQ | not soluble
5 | SPSAQELKEQGNRLFVGRKYPEAAACYGRAITRNPLVAVYYTNRALCYLKMQQPEQALADCRRALELDGQSVKAHFFLGQCQLEMESYDEAIANLQRAYSLAKEQRLNFGDDIPSALRIAKKKRWNSIEERRIHQESELHSYLTRLIAAERERELEECQRNHEGHEDDGHIRAQQACIEAKHDKYMADMDELFSQVDEKRKKRDIPDYLCGKISFELMREPCITPSGITYDRKDIEEHLQRVGHFNPVTRSPLTQEQLIPNLAMKEVIDAFISENGWVEDY | soluble
6 | MAHHHHHHSLKDKPLKLTVEKLVYGGYGFSRLNGKAVFVRFASPKELVEAKVVKEKKDYTEAVVTKVLISSPARRKAPCPYYGECGGCQIQHLNYEEQLRSKKDILLESLERIGKIKEVPYEGEIPSKKEFNYRVRVQFKIQENRVGFYRWDVKEVVDVEECLLAHERINELIPHIREVLKVIKDLQEVHVNYSPTRDEATLKFVTITHTDEKLLQNILENVLPEWVVGIGDYGKVGNSLVKRYKVGREHIFMDVGKWQYRVSNDSFFQVNYTLWEDFLKEVLDFSESYKKGLDLHCGVGFFTIPLSEQGNFIEGADANPSAIKDAEYNAKINNRDNVIFEEATAFKHLKRRIGEVINLVVVDPPRSGLLREERDLLLKNKPDKIVYISCNPTTFARDLKILTKGGYELKRLKLIDNFPQTYHIESIALLEVKDEG | soluble
7 | MGLTEQKQKHMEQLSDKNGIISALAFDQRGALKRLMAKYQSEEPTVSQIEALKVLVAEELTPYASSMLLDPEYGLPATKVLDDNAGLLLAYEKTGYDTSSTKRLPDCLDIWSAKRIKEEGADAVKFLLYYDVDSSDEVNEEKEAYIERIGSECVAEDIPFFLEILSYDEKITDSSGIEYAKIKPRKVIEAMKVFSNPRFNIDVLKVEVPVNMDYVEGFAQGETAYNKATAAAYFREQDQATLLPYIFLSAGVPAQLFQETLVFAKEAGAKFNGVLCGRATWAGSVKEYVEKGEAGARQWLRTIGFQNIDELNKILQKTATSWKER | not soluble
8 | MKKKKLFLGTIISCVVLALSACGSSDNVVTSKVGNITEKELSKELRQKYGESTLYQMVLSKALLDKYKVSDEEAKKQVEEAKDKMGDNFKSTLEQVGLKNEDELKEKMKPEIAFEKAIKATVTEKDVKDNYKPEMKVSHILVKDEKTAKEVKEKVNNGEDFAALAKQYSEDTGSKEQGGEITGFAPGQTVKEFEEAAYKLDAGQVSEPVKTTYGYHIIKVTDKKELKPFDEVKDSIRKDIEQQRLQDTTGKWKQQVVNELLKDADIKVNDKEFKNTFEFLEKK | not soluble
9 | MSLTSQKTQLEPLGIVRIEGLHYYVHDLERSRRFYAQKLDFAEVARSTPALEREGRQRSAVFEAGGVRVVCSEPVGQGGRAWRWLRKHPDGVGTVVLEVEDAERAFRLLEERGGTPITDVQEHRDDGGTLRTFSITTPLGDTTFRFVERRGFRAVYPGIEPLAAPEGGRNAFGFGHVDHLTNNFQTMKPALLWMEHVMGMEEFWEVEFHTKDAAGARRAAIEAQKGSGLRSVVMRDPRSGVKFANNEPRRPAFKSSQINLFNEDLRGDGVQHAALTVQDILSSVRGMRARGVEFMPTPAAYYEALPERIRSTGIGRIDEDPRVLQELEILVDGAGDHSYLLQIFLRESAGLYHDPDAGPFFFEIIQRKGDQGFGAGNFRALFESIEREQVREGREGHHHHHH | soluble
10 | PGVGDYKGLLKWTSHNQYEKEVKKADEQYGKLYAKFADMPIEKVAKDPQAKQIAQNLFNTYCIQCHGSDAKGSKGFPNLTDSDWLWGGDPDKIHETIEKGRVATMPAWGPALGEEGVKDVAHYVMSLSKPEGQYDEERAARGQALFSGPPANCFTCHGDKGQGIQGLGPNLTDDVWLWGGTQKSIIETITNGRSSQMPAWGHFLDKDKLHIMTAYVWGLSDKDGKAPVKKAEPAPTPAPAAEPAASAPAEAAQAVSEAKPAAAEPKAEEKAAPAAKADGK | not soluble
11 | GPGSMENKDVATSWDYNSAEIGEFVPNSCTGTHFPNGIACAPWFQQQVTSQPHLCSSEFASSVESVGGPACRVGSEGSDYCFMNKSVCRNEEEGAEEVEGNEGESNLRWGMHIHPAALRAVQASSREVVQGLIRDKELLCSQFGTMQQNIPLAITWHDTTAPSPNQTLASTFTPLPHKKRSRDLVTLLSGISPDWEAAEEVGGASAAAHVGGLEIQRKRFRVDNPTIGSAAYEVSKAATAASPKPWIKARQKRVREEGDEDVNVNVEWGRGRDGNENSGR | soluble
12 | MSLSVLKICTKDQKGLIYRISDVIFKYHINIVKNDEFVGEGMFFFRALLEGEFDKEAFIGTLEAMLGQEALIELCEKRKKDIVVFATKESHCLGDLLIKHYSNELEANIKAVISNHNSLKDLVEKFEIPYHFISAENLDRKEQENQILKCLEQYKFDYLVLAKYMRILSPDFVRHFEGKIINIHHSFLPAFIGANPYKQAFERGVKIIGATAHFVNNNLDEGPIITQAVSPVNHEFTWQDMQQAGRNIEKDVLSKALDLAFEDRIFIHNNKTIIFEGHHHHHH | soluble
13 | SWKFSRYVRTQMQELEPWQLKQALKTHQGVLQATYEGLVAINSEGSLYLINDSARAMLNYHQELGNVFTDGIDNPESFSLKGDDYINGLIRVNGKNLVMNRVTLRTSTGEPYGAVFSLRDQNEMHVLSEKISQVTQYMENMRVARHEYQNKLSTISGLLQMGAYDKALSVCLSQAKASQSQLDSLHALNSRPALSALILAKASKANELGVALSIDCQSDLSALSRRLSEEQLCGLIGNLAQNALEAVKGQENGHVHIGISESACEYTIQVSNNGPLLESEFDVLCELGFTTKQNKADHGVGMYLVRSIVEQGNGHMELDSDEQETAFTIYFPKELG | not soluble
14 | SPEIMKNLSNNFGKAMDQCKDELSLPDSVVADLYNFWKDDYVMTDRLAGCAINCLATKLDVVDPDGNLHHGNAKDFAMKHGADETMAQQLVDIIHGCEKSAPPNDDKCMKTIDVAMCFKKEIHKLNWVPNMDLVIGEVLAEV | soluble
15 | SLHIDVNNALNRAELVHSALFHEVDAIDSFCADWAEWDDTYNFVLNRNMDYVESNLVDETFPTLNVNYIVYLDRNGEVVLAKGYDLENETAMNPSQPLIERFRELSARNDLDVKKGFLRFDNSIYAFSARPILRSDETGPYAGTLIFARIVDDSFIQSPSKIAGLSFKILPVPKEKSVKFVNESALLVEFPLEDYSGRVVGTIEFYAEREALG | soluble
16 | MDPRQFEHTVVADNDIHSIVMSYLLHNCFNETADSLASSTGVKQPAIDRDNMERRKQIIHFILERKALKAFELTEQLAQDLLEKNKDLQFDLLCLHFVELICAGNCTEALKFGKTRLAPFGKVKKYVEKLEDVMALLAYEDPEKSPMFHLLSSEYRQQVADNLNRTILEHTNHPSYTPMERIIQQVTVVRQYLTEENGKDAFPPFSLKDSLKG | soluble
17 | MALDLTGYLDRINYRGATDPTLDVLRDLVSAHTGAIAFENLDPLMGVPVDDLSAEALADKLVDRRRGGYCYEHNGLIGYVLAELGYRVRRLAGRVVWLAPPDAPTPAQTHTVLAVTFPGCQGPYLVDVGFGGMTPTAPLRLETGTVQQTALEPYRLDDRGDGLVLQAMVRDEWQALYEFSTLTRPQVDLRVGSWFVSTHPTSHFVTGLMAATVADDARWNLMGRNLAIHRRGGTEKILLEDAAAVVDTLGDRFGINVADVGERGRLEARIDKVCFGAENR | soluble
18 | MYLKRPIWSDGASATPENPSESETGEESDAASMVVEELVTSLNTQRLYRELTLSLRTGLRDACAEFSFLRIRGLRSLLKTLRTVADSDSIIRLFSHTQTISDLQLVPVLFQHSLKEAEDDKVTSLDHIFSVEPMKITSPSTDAEVAVALRVLEGCCLLHPQSTVLAHKHGAVRVMMNVLSTRGVLEQGACLDALISVLLDSSANQVDFGACNGIEEVAMLMRDKQADENLSIYTIKIAVNEDSFPFCLFWLRCGEFLLLLVGHVNGKDRSPIASVNEDIRRLLGEKSASLIWAASQFGSTGDPEQRITALHIQAGRVLESLDLY | soluble
19 | DEIVMDANAVLGPVDPQLGNFPAASILKVVKDKPIGEIDDQTLIMADLAGKAIQQVQRFVRTLLKDNIPKQKVNPENIESIIEALTTGRVTHDYPITVEEATEMGLPITVGLPRSIYELMDLYPQSQGGRPSVQYIPMPYDDRRPIL | not soluble
20 | MKSALSDLAFFGGPAAFDQPLLVGRPNRIDRARLYERLDRALDSQWLSNGGPLVREFEERVAGLAGVRHAVATCNATAGLQLLAHAAGLTGEVIMPSMTFAATPHALRWIGLTPVFADIDPDTGNLDPDQVAAAVTPRTSAVVGVHLWGRPCAADQLRKVADEHGLRLYFDAAHALGCAVDGRPAGSLGDAEVFSFHATKAVNAFEGGAVVTDDADLAARIRALHNFGFDLPGGSPAGGTNAKMSEAAAAMGLTSLDAFPEVIDRNRRNHAAYREHLADLPGVLVADHDRHGLNNHQYVIVEIDEATTGIHRDLVMEVLKAEGVHTRAYFSPGCHELEPYRGQPHAPLPHTERLAARVLSLPTGTAIGDDDIRRVADLLRLCATRGRELTARHRDTAPAPLAAPQTSTPTIGRSRGLEHHHHHH | soluble
21 | MPTIQSVRRTQSGRPGKRAINLSLSADVLDAARQLDINISQVCDTYLREVVRHEQERRWREEHADFITAYNATIEAENLPLDEWRSF | not soluble
